Results reported in the supplement of paper PMC10567573.

B1: MATN2 (parent)
chain: VNVPGSFVCQCYSGYALAEDGKRC
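Further: lentivirally expressed fusions sorted by FACS into six bins by GFP to DsRed ratio, PSI derived from sequencing read proportions per bin multiplied by bin number.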

Variants of: B1
Experiment: protein stability index of a GFP-peptide fusion (GPS, HEK-293T) (PSI 1-6); higher = more stable
Settings: c terminus: a fixed tail appended
In the case of VNVPGSFTCQCYSGYALAEDGKRC [V8T], the protein stability index is reported as 1.96.
Variant VNVPGSFWCQCYSGYALAEDGKRC [V8W] has a protein stability index of 3.21.
VNVPGSFYCQCYSGYALAEDGKRC [V8Y] showed a protein stability index of 3.01.
VNVPGSFVAQCYSGYALAEDGKRC [C9A] showed a protein stability index of 1.81.
Variant VNVPGSFVDQCYSGYALAEDGKRC [C9D] has a protein stability index of 4.36.
For VNVPGSFVEQCYSGYALAEDGKRC [C9E], the protein stability index was 3.33.
VNVPGSFVFQCYSGYALAEDGKRC [C9F] showed a protein stability index of 2.54.
With VNVPGSFVGQCYSGYALAEDGKRC [C9G] the protein stability index was 2.8.
With VNVPGSFVHQCYSGYALAEDGKRC [C9H] the protein stability index was 2.95.
In the case of VNVPGSFVIQCYSGYALAEDGKRC [C9I], the protein stability index is reported as 1.5.
Variant VNVPGSFVKQCYSGYALAEDGKRC [C9K] has a protein stability index of 3.08.
VNVPGSFVLQCYSGYALAEDGKRC [C9L] gave a protein stability index of 2.05.
With VNVPGSFVMQCYSGYALAEDGKRC [C9M] the protein stability index was 2.28.
Variant VNVPGSFVNQCYSGYALAEDGKRC [C9N] has a protein stability index of 3.12.
Variant VNVPGSFVPQCYSGYALAEDGKRC [C9P] has a protein stability index of 3.06.
With VNVPGSFVQQCYSGYALAEDGKRC [C9Q] the protein stability index was 2.97.
VNVPGSFVRQCYSGYALAEDGKRC [C9R] gave a protein stability index of 2.69.
VNVPGSFVSQCYSGYALAEDGKRC [C9S] gave a protein stability index of 3.15.
In the case of VNVPGSFVTQCYSGYALAEDGKRC [C9T], the protein stability index is reported as 2.52.
With VNVPGSFVVQCYSGYALAEDGKRC [C9V] the protein stability index was 2.32.
With VNVPGSFVWQCYSGYALAEDGKRC [C9W] the protein stability index was 2.21.
Work on VNVPGSFVYQCYSGYALAEDGKRC [C9Y] yielded a protein stability index of 2.2.
For VNVPGSFVCACYSGYALAEDGKRC [Q10A], the protein stability index was 1.56.
VNVPGSFVCCCYSGYALAEDGKRC [Q10C] showed a protein stability index of 1.7.
VNVPGSFVCDCYSGYALAEDGKRC [Q10D] showed a protein stability index of 2.47.
VNVPGSFVCECYSGYALAEDGKRC [Q10E] gave a protein stability index of 1.55.
Work on VNVPGSFVCFCYSGYALAEDGKRC [Q10F] yielded a protein stability index of 2.64.
With VNVPGSFVCGCYSGYALAEDGKRC [Q10G] the protein stability index was 1.65.
VNVPGSFVCHCYSGYALAEDGKRC [Q10H] gave a protein stability index of 1.78.
VNVPGSFVCKCYSGYALAEDGKRC [Q10K] gave a protein stability index of 1.7.
Work on VNVPGSFVCLCYSGYALAEDGKRC [Q10L] yielded a protein stability index of 2.46.
VNVPGSFVCMCYSGYALAEDGKRC [Q10M] gave a protein stability index of 2.88.
In the case of VNVPGSFVCNCYSGYALAEDGKRC [Q10N], the protein stability index is reported as 2.31.
With VNVPGSFVCPCYSGYALAEDGKRC [Q10P] the protein stability index was 2.15.
For VNVPGSFVCRCYSGYALAEDGKRC [Q10R], the protein stability index was 2.01.
For VNVPGSFVCSCYSGYALAEDGKRC [Q10S], the protein stability index was 2.29.
Work on VNVPGSFVCTCYSGYALAEDGKRC [Q10T] yielded a protein stability index of 2.52.
Work on VNVPGSFVCVCYSGYALAEDGKRC [Q10V] yielded a protein stability index of 2.08.
VNVPGSFVCWCYSGYALAEDGKRC [Q10W] showed a protein stability index of 2.32.
With VNVPGSFVCYCYSGYALAEDGKRC [Q10Y] the protein stability index was 1.97.
For VNVPGSFVCQAYSGYALAEDGKRC [C11A], the protein stability index was 3.12.
VNVPGSFVCQDYSGYALAEDGKRC [C11D] showed a protein stability index of 4.08.
VNVPGSFVCQEYSGYALAEDGKRC [C11E] showed a protein stability index of 3.27.
VNVPGSFVCQFYSGYALAEDGKRC [C11F] gave a protein stability index of 2.48.
For VNVPGSFVCQGYSGYALAEDGKRC [C11G], the protein stability index was 2.75.
VNVPGSFVCQHYSGYALAEDGKRC [C11H] showed a protein stability index of 2.65.
With VNVPGSFVCQIYSGYALAEDGKRC [C11I] the protein stability index was 1.72.
Variant VNVPGSFVCQKYSGYALAEDGKRC [C11K] has a protein stability index of 2.87.
In the case of VNVPGSFVCQLYSGYALAEDGKRC [C11L], the protein stability index is reported as 2.19.
For VNVPGSFVCQMYSGYALAEDGKRC [C11M], the protein stability index was 1.86.
VNVPGSFVCQNYSGYALAEDGKRC [C11N] gave a protein stability index of 2.97.
With VNVPGSFVCQPYSGYALAEDGKRC [C11P] the protein stability index was 2.42.
VNVPGSFVCQQYSGYALAEDGKRC [C11Q] gave a protein stability index of 2.94.
With VNVPGSFVCQRYSGYALAEDGKRC [C11R] the protein stability index was 3.32.
VNVPGSFVCQTYSGYALAEDGKRC [C11T] showed a protein stability index of 2.43.
VNVPGSFVCQVYSGYALAEDGKRC [C11V] gave a protein stability index of 1.7.
For VNVPGSFVCQWYSGYALAEDGKRC [C11W], the protein stability index was 2.05.
In the case of VNVPGSFVCQYYSGYALAEDGKRC [C11Y], the protein stability index is reported as 2.1.
VNVPGSFVCQCASGYALAEDGKRC [Y12A] gave a protein stability index of 2.73.
Work on VNVPGSFVCQCCSGYALAEDGKRC [Y12C] yielded a protein stability index of 2.87.
In the case of VNVPGSFVCQCDSGYALAEDGKRC [Y12D], the protein stability index is reported as 4.36.
In the case of VNVPGSFVCQCESGYALAEDGKRC [Y12E], the protein stability index is reported as 3.47.
For VNVPGSFVCQCFSGYALAEDGKRC [Y12F], the protein stability index was 2.54.
VNVPGSFVCQCHSGYALAEDGKRC [Y12H] showed a protein stability index of 2.24.
In the case of VNVPGSFVCQCISGYALAEDGKRC [Y12I], the protein stability index is reported as 1.36.
VNVPGSFVCQCKSGYALAEDGKRC [Y12K] gave a protein stability index of 1.96.
VNVPGSFVCQCLSGYALAEDGKRC [Y12L] gave a protein stability index of 2.21.
In the case of VNVPGSFVCQCNSGYALAEDGKRC [Y12N], the protein stability index is reported as 1.98.
VNVPGSFVCQCPSGYALAEDGKRC [Y12P] gave a protein stability index of 3.02.
For VNVPGSFVCQCQSGYALAEDGKRC [Y12Q], the protein stability index was 1.76.
With VNVPGSFVCQCRSGYALAEDGKRC [Y12R] the protein stability index was 2.
For VNVPGSFVCQCSSGYALAEDGKRC [Y12S], the protein stability index was 2.64.
Work on VNVPGSFVCQCTSGYALAEDGKRC [Y12T] yielded a protein stability index of 2.95.
Variant VNVPGSFVCQCVSGYALAEDGKRC [Y12V] has a protein stability index of 2.13.
For VNVPGSFVCQCWSGYALAEDGKRC [Y12W], the protein stability index was 2.62.
VNVPGSFVCQCYAGYALAEDGKRC [S13A] showed a protein stability index of 2.39.
VNVPGSFVCQCYCGYALAEDGKRC [S13C] gave a protein stability index of 3.25.
In the case of VNVPGSFVCQCYDGYALAEDGKRC [S13D], the protein stability index is reported as 2.17.
For VNVPGSFVCQCYEGYALAEDGKRC [S13E], the protein stability index was 2.1.
Work on VNVPGSFVCQCYGGYALAEDGKRC [S13G] yielded a protein stability index of 2.33.
VNVPGSFVCQCYIGYALAEDGKRC [S13I] gave a protein stability index of 1.62.
For VNVPGSFVCQCYKGYALAEDGKRC [S13K], the protein stability index was 1.58.
For VNVPGSFVCQCYLGYALAEDGKRC [S13L], the protein stability index was 2.52.
Work on VNVPGSFVCQCYNGYALAEDGKRC [S13N] yielded a protein stability index of 2.45.
Work on VNVPGSFVCQCYPGYALAEDGKRC [S13P] yielded a protein stability index of 2.47.
With VNVPGSFVCQCYQGYALAEDGKRC [S13Q] the protein stability index was 1.5.
VNVPGSFVCQCYRGYALAEDGKRC [S13R] gave a protein stability index of 1.85.
Variant VNVPGSFVCQCYTGYALAEDGKRC [S13T] has a protein stability index of 2.34.
In the case of VNVPGSFVCQCYVGYALAEDGKRC [S13V], the protein stability index is reported as 1.32.
In the case of VNVPGSFVCQCYWGYALAEDGKRC [S13W], the protein stability index is reported as 3.15.
In the case of VNVPGSFVCQCYYGYALAEDGKRC [S13Y], the protein stability index is reported as 1.9.
VNVPGSFVCQCYSAYALAEDGKRC [G14A] showed a protein stability index of 2.37.
Variant VNVPGSFVCQCYSCYALAEDGKRC [G14C] has a protein stability index of 2.16.
Work on VNVPGSFVCQCYSDYALAEDGKRC [G14D] yielded a protein stability index of 1.95.
